From patent US20230242646A1 (JJP BIOLOGICS SP Z O O, published 2023)

Assays:
[1] = molecular target: T1, membrane-bound full-length human CD89 on HEK293F cells (human, UniProt P24071 22-287); test: FACS, antibody before serum IgA on HEK293F-huCD89; IgA detected
T1 construct: 2 or transient transfectants; also called membrane human CD89; human FcaRI
Procedure: Then, 10 µL/tube (i.e., 0.1 x 10⁶ cells) of these cells were incubated with 50 µL titrated (in PBS/BSA/NaN₃) purified mouse anti-human CD89 antibody/tube for 30 minutes at 4° C. […] After extensive washing in PBS/BSA/NaN₃, 1:200 diluted PE-conjugated streptavidin (Jackson ImmunoResearch) was added, and incubated for 30 minutes at 4° C. After extensive washing in PBS/BSA/NaN₃, cells were fixed in 2% formaldehyde in PBS/BSA/NaN₃ for 30 minutes at 4° C.

[2] = molecular target: T2, chimeric human/cynomolgus monkey CD89-II on HEK293F cells (human/cynomolgus chimera, UniProt P24071 22-287); test: FACS, 10 µg/mL, transiently transfected HEK293F
T2 construct: also called dIle47 - Ile71 human EC1-CD89; II (47-71)
T2 chain: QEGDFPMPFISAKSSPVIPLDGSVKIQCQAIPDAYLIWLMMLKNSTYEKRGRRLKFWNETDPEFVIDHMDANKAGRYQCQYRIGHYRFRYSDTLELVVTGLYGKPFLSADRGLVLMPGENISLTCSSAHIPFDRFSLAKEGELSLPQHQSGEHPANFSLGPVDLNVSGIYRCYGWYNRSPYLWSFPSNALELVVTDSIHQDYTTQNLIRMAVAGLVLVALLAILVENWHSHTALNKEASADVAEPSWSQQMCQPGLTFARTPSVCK
Procedure: To this end, transient transfected HEK293F cells were put at 10 × 10⁶ cells/mL in ice-chilled phosphate-buffered saline containing 0.1% BSA (Sigma)/0.05% NaN₃ (PBS/BSA/NaN₃) supplemented with 50 µg/mL human IgGs (blocking FcY receptors; Sigma) for 10 minutes at 4° C. Then, 10 µL/tube (i.e., 0.1 × 10⁶ cells) of these cells were incubated with or without 100 µL purified mouse anti-human CD89 antibody at 10 µg/mL (in PBS/BSA/NaN₃) for 30 minutes at 4° C. […] After extensive washing in PBS/BSA/NaN₃, cells were subsequently incubated with 1:200 diluted PE-conjugated goat anti-mouse IgG Fcy-specific antibodies (Jackson ImmunoResearch) for 30 minutes at 4° C. After extensive washing in PBS/BSA/NaN₃, cells were fixed in 2% formaldehyde in PBS/BSA/NaN₃ for 30 minutes at 4° C.

[3] = molecular target: T3, membrane full-length cynomolgus monkey CD89 on HEK293F cells (cynomolgus monkey); test: FACS, transiently transfected HEK293F
T3 construct: also called cynoCD89; cynomolgus EC1-CD89
T3 chain: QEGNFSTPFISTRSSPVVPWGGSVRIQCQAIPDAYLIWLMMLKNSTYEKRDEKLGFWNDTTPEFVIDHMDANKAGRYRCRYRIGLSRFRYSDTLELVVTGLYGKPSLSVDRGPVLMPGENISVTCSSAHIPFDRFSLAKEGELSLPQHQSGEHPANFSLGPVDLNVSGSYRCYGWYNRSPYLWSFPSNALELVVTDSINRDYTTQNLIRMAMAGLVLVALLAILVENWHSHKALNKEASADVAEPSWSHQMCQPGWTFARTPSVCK

[4] = molecular target: T4, recombinant C-terminal polyhistidine-tagged human (extracellular) CD89 (Sino Biological) (human, UniProt P24071 22-227); test: ELISA, antibody before serum IgA on coated rhuCD89; IgA detected
T4 construct: extracellular domain; bought protein; also called rhuCD89; soluble monomeric rhuCD89
Procedure: After extensive washing with PBS/0.05% Tween 20, plates were blocked with PBS/0.05% Tween 20/1% BSA (Roche) for 1 hour at RT. Subsequently, plates were incubated with 25 µL titrated (in block buffer) purified mouse anti-human CD89 antibody/well for 30 minutes at RT. […] After extensive washing in PBS/0.05% Tween 20, 1:10,000 diluted HRP-conjugated streptavidin (Jackson ImmunoResearch) was added, and incubated for 1 hour at RT, followed by a ready-to-use solution of TMB substrate (Invitrogen) for colorimetric detection.

B1: CD89/IgA blocking mouse anti-human CD89-specific antibody 10E7 (antibody, V domains shown)
VH: EVQLVESGGGLVQPGGSLKLSCAASGLTFSSYGMSWVRQTPDKRLELVATINGNGDITYYPDSVKGRFTISRDNAKNTLYLQMSSLKSEDTAMYYCARDYDYDYAMDYWGQGTSVTVSS
VL: DIQMTQSTSSLSASLGDSVTISCRASQDIINYLNWYQQKPDGTVKLLIYYTSRLHSGVPSRFSGSGSGTEYSLTVSNLEKEDIATYFCQQGKTLPYTFGGGTKLEIK
notes: biotinylated in the Octet assay; also called mouse 10E7
IC50 (read off the curve) [1]: ~0.7 µg/mL | binding result [2]: binds | binding result [3]: no binding (tested: 10 µg/mL) | IC50 (read off the curve) [4]: ~0.06 µg/mL
